Results on three molecules are retold here after publication PMC7610366 (Nature chemical biology, 2020).

One may read the Kd as the concentration at which binding is half-saturated. Read a high Kd as a looser complex.

Assay [1] concerns the target 6xHis-tagged RcsF (E. coli) (UniProt P69411). Description: BLI. Background: BLI is a label-free optical method that tracks binding on a fibre tip over time.
Assay [2] has as its target Untagged BamA (E. coli), P0A940. Briefly: BLI. Particulars: remark: other sources report otherwise.
Assay [3] concerns the target BamAB sub-complex (E. coli, UniProt P0A940;P77774, lipid moiety). Description: native gel or EMSA.
For assay [4], the target named is BamABCDE holocomplex (E. coli, UniProt P0A940;P77774;P0A903;P0AC02;P0A937, lipid moiety | lipid moiety | lipid moiety | lipid moiety). Description: native gel or EMSA. Background: A gel shift assay detects complexes by their altered migration in electrophoresis.
Chain of BamABCDE holocomplex (P77774 20-392, chain 2 of 4): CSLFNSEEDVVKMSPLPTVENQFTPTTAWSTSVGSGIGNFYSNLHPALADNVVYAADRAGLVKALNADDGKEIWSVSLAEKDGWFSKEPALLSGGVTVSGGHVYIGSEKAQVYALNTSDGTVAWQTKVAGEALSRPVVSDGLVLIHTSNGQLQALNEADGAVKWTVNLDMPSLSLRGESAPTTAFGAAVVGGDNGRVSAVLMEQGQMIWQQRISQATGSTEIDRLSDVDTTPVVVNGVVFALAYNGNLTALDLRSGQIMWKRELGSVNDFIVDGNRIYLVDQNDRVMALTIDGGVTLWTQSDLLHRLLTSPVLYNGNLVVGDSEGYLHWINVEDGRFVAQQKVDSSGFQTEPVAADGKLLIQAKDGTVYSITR
Chain of BamABCDE holocomplex (P0A903 25-344, chain 3 of 4): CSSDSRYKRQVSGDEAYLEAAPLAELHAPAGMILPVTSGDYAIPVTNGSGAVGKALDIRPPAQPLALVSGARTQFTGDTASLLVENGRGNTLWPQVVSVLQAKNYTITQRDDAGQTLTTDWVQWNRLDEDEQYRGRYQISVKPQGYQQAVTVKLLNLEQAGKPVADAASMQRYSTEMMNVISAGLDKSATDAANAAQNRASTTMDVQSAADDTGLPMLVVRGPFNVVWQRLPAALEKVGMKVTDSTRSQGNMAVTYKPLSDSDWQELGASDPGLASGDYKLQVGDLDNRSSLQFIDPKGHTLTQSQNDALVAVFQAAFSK
Chain of BamABCDE holocomplex (P0AC02 20-245, chain 4 of 4): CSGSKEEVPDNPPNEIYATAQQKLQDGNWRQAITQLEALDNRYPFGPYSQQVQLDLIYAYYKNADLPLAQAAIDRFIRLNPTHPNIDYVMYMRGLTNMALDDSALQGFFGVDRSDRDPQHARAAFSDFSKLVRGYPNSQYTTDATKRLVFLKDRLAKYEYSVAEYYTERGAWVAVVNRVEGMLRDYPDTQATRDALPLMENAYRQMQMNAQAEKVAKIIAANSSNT
Chain of BamABCDE holocomplex (P0A937 20-113, chain 5 of 4): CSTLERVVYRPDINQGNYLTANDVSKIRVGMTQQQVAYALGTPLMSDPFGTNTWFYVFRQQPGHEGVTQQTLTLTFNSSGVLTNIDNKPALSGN

Chain of BamAB sub-complex (P77774 20-392, one chain of several): as the sequence (P77774 20-392, chain 2 of 4) above

The molecule “Untagged BamA (from UniProt P0A940 21-810) (natural protein; other documents disagree on this pair)” showed a Kd in assay [1] of 0.42 µM. This counts as sub-micromolar.

B1: 6xHis-tagged RcsF, P69411 16-134 (natural protein)
chain: CSMLSRSPVEPVQSTAPQPKAEPAKPKAPRATPVRIYTNAEELVGKPFRDLGEVSGDSCQASNQDSPPSIPTARKRMQINASKMKANAVLLHSCEVTSGTPGCYRQAVCIGSALNITAK
modifications: here or on the partner: biotin (EZ-Link NHS-PEG4-biotin) where immobilised on streptavidin tips
As to B1, in assay [2], the Kd was 0.35 µM.

B2: RcsF (natural protein)
chain: CSMLSRSPVEPVQSTAPQPKAEPAKPKAPRATPVRIYTNAEELVGKPFRDLGEVSGDSCQASNQDSPPSIPTARKRMQINASKMKANAVLLHSCEVTSGTPGCYRQAVCIGSALNITAK
modifications: lipid anchor
Take B2: the binding result in assay [3] and in assay [4] was “binds” in each case.
